Target: T1, eL8, ribosomal protein of the Pf60S subunit (P. falciparum (3D7 strain), UniProt Q8ILL2 1-283)
T1 construct: eL8 of the P. falciparum 3D7 cytoplasmic ribosome; total number of residues 283; built residues 40-46, 54-131, 147-283; extensions compared to human 11-24 and 279-283; Native protein as part of the whole 80S ribosome; also called Q8ILL2_PLAF7; PF3D7_1424400; source: endogenous, in Pf80S ribosomes purified from P. falciparum 3D7 parasites (sucrose cushion, 10-40% sucrose gradient)
T1 sequence (looked up): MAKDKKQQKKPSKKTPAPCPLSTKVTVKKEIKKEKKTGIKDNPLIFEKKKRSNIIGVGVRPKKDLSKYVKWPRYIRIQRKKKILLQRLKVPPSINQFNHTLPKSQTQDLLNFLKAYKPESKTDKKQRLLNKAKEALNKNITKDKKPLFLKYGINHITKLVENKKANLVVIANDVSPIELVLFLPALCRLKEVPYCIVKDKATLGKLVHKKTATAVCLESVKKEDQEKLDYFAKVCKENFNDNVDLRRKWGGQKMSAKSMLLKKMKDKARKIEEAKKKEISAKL
Assay: cryo-EM structure; native Pf80S ribosome purified from parasites, 160 nM, incubated with 1 mM emetine for 15 min at 25°C in 20 mM Hepes pH 7.4, 40 mM KCH3COO, 10 mM NH4CH3COO, 10 mM Mg(CH3COO)2, 5 mM 2-mercaptoethanol; 3.2 Å overall; the two proteins are members of the co-purified ribosome
Settings: both partners purified

B1: eS1, ribosomal protein of the Pf40S subunit (natural protein, P. falciparum (3D7 strain), UniProt O97313 1-262, looked up)
chain: MAVGKNKRTSKGKKGGKKKVTDVFTKKEWYDLKAPKMFLVRNFGKTLVTKTIGKKLATDSLKGRIYEVNLADLNNDEDQAHKKIKLSCDHIINRDCYTDFCGLSITRDKLCSLIRKGYTLIEGHTDVKTLDNYHLRMFCIAFTKKRQNQTKSTCYAQTSQIKKIRKKMVDIMTAEASKVLLKDLVKKFIPESIGKEIEKQCKKIYPLQNVLIRKVKILKRPKLDISKLMELHTDPKEESGKNVNALPESKEATNILTAELKH
notes: eS1 of the P. falciparum 3D7 cytoplasmic ribosome; total number of residues 262; built residues 24-233; extension compared to human 245-262; Native protein as part of the whole 80S ribosome; also called PF3D7_0322900; source: endogenous, in Pf80S ribosomes purified from P. falciparum 3D7 parasites (sucrose cushion, 10-40% sucrose gradient)
binding result: binds
